According to patent US20140141023A1 (PIERRE FABRE MEDICAMENT, published 2014):

T1: human protein Axl expressed on cells (SN12C human renal tumor cells; CHO-Axl cells) (human, UniProt P30530 26-894)
T1 construct: also called membrane Axl receptor; cell-surface Axl
T1 sequence: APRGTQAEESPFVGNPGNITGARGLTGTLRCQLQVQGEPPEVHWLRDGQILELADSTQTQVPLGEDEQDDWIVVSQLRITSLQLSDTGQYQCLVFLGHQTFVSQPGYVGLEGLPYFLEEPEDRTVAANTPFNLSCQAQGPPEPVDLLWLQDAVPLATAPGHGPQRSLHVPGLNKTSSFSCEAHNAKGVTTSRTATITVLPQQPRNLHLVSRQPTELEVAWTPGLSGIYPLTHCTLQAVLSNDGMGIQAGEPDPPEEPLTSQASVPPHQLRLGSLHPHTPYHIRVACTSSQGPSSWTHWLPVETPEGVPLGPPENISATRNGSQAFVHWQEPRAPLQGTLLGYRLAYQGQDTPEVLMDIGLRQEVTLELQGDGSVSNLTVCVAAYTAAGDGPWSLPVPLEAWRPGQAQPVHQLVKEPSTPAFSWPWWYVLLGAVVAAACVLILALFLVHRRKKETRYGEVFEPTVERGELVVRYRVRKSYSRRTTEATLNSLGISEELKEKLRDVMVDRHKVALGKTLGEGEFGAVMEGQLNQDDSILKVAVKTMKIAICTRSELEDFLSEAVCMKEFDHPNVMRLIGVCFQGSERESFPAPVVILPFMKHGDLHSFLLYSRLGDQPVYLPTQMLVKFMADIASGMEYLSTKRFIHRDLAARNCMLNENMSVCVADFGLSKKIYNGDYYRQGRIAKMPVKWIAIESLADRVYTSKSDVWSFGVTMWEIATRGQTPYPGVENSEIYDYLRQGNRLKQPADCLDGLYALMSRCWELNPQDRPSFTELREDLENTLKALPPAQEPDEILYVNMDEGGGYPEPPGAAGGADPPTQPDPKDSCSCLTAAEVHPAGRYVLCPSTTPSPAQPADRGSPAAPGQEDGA


How the values were obtained:
[1] = molecular target: human protein Axl expressed on cells (SN12C human renal tumor cells; CHO-Axl cells) (human) (UniProt P30530); assay: QIFIKIT quantitative flow cytometry on Panc1 cells (pancreas)
[2] = molecular target: human protein Axl expressed on cells (SN12C human renal tumor cells; CHO-Axl cells) (human) (UniProt P30530); assay: QIFIKIT quantitative flow cytometry on SN12C cells (renal)
[3] = molecular target: human protein Axl expressed on cells (SN12C human renal tumor cells; CHO-Axl cells) (human) (UniProt P30530); assay: QIFIKIT quantitative flow cytometry on A431 cells (epidermoid carcinoma)
[4] = molecular target: human protein Axl expressed on cells (SN12C human renal tumor cells; CHO-Axl cells) (human) (UniProt P30530); assay: QIFIKIT quantitative flow cytometry on Calu-1 cells (lung)
[5] = molecular target: human protein Axl expressed on cells (SN12C human renal tumor cells; CHO-Axl cells) (human) (UniProt P30530); assay: QIFIKIT quantitative flow cytometry on DU-145 cells (prostate)
[6] = molecular target: human protein Axl expressed on cells (SN12C human renal tumor cells; CHO-Axl cells) (human) (UniProt P30530); assay: QIFIKIT quantitative flow cytometry on NCI-H125 cells (NSCLC)
[7] = molecular target: human protein Axl expressed on cells (SN12C human renal tumor cells; CHO-Axl cells) (human) (UniProt P30530); assay: QIFIKIT quantitative flow cytometry on MDA-MB-435S cells (breast)
[8] = molecular target: human protein Axl expressed on cells (SN12C human renal tumor cells; CHO-Axl cells) (human) (UniProt P30530); assay: QIFIKIT quantitative flow cytometry on PC3 cells (prostate)
[9] = molecular target: human protein Axl expressed on cells (SN12C human renal tumor cells; CHO-Axl cells) (human) (UniProt P30530); assay: Qifikit (Dako) quantitative flow cytometry on SN12C human renal cancer cells
[10] = molecular target: human protein Axl expressed on cells (SN12C human renal tumor cells; CHO-Axl cells) (human) (UniProt P30530); assay: flow cytometry, labelling of untreated (No Ab) SN12C cells
[11] = molecular target: human protein Axl expressed on cells (SN12C human renal tumor cells; CHO-Axl cells) (human) (UniProt P30530); assay: QIFIKIT quantitative flow cytometry on MDA-MB-231 cells (breast)
[12] = molecular target: human protein Axl expressed on cells (SN12C human renal tumor cells; CHO-Axl cells) (human) (UniProt P30530); assay: QIFIKIT quantitative flow cytometry on MCF7 cells (breast)
[13] = molecular target: human protein Axl expressed on cells (SN12C human renal tumor cells; CHO-Axl cells) (human) (UniProt P30530); assay: QIFIKIT quantitative flow cytometry on NCI-H226 cells (NSCLC)
[14] = molecular target: human protein Axl expressed on cells (SN12C human renal tumor cells; CHO-Axl cells) (human) (UniProt P30530); assay: QIFIKIT quantitative flow cytometry on A172 cells (glioblastoma)
[15] = molecular target: human protein Axl expressed on cells (SN12C human renal tumor cells; CHO-Axl cells) (human) (UniProt P30530); assay: flow cytometry, labelling of SN12C cells treated 24 h with 9G4 at 10 µg/ml
[16] = molecular target: monkey Axl receptor expressed on the surface of COS7 cells (African green monkey); assay: flow cytometry on COS7 cells, goat anti-mouse Alexa 488
[17] = molecular target: T1, human protein Axl expressed on cells …; assay: flow cytometry on SN12C cells, goat anti-mouse Alexa 488
[18] = molecular target: monkey Axl receptor expressed on the surface of COS7 cells (African green monkey); assay: flow cytometry titration on COS7 cells

| Molecule | ABC (Qifikit) [1] [ABC] | ABC (Qifikit) [2] [ABC] | ABC (Qifikit) [3] [ABC] | ABC (Qifikit) [4] [ABC] | ABC (Qifikit) [5] [ABC] | ABC (Qifikit) [6] [ABC] | ABC (Qifikit) [7] [ABC] | ABC (Qifikit) [8] [ABC] | Antigen binding capacity (Qifikit) [9] [ABC] | MFI at T24 h [10] [MFI] | ABC (Qifikit) [11] [ABC] | ABC (Qifikit) [12] [ABC] | ABC (Qifikit) [13] [ABC] | ABC (Qifikit) [14] [ABC] | MFI at T24 h [15] [MFI] | EC50 (read off the curve) [16] [pM] | EC50 (read off the curve) [17] [pM] | concentration above which the plateau is reached [18] [pM] |
| --- | --- | --- | --- | --- | --- | --- | --- | --- | --- | --- | --- | --- | --- | --- | --- | --- | --- | --- |
| MAB154 anti-Axl commercial antibody (R and D Systems) | 36800 | > 100000 | 3950 | > 100000 | 55300 | 5540 | 17800 | 8420 | > 100000 | 950 | 61200 | 71 | 32100 | 52400 | – | – | – | – |
| 9G4 (mIgG1 isotype control antibody) | – | – | – | – | – | – | – | – | – | 11 | – | – | – | – | 13 | – | – | – |
| 1613F12 (antibody, V domains shown, also called 1613F12 antibody; 1613F12 Mab) VH: EVHLQQSGAELVKPGASVKLSCTASGFNIRDTYIHWVKQRPEQGLEWIGRLDPANGHTKYGPNFQGRATMTSDTSSNTAYLQLSSLTSEDTAVYYCARGAYYYGSSGLFYFDYWGQGTTLSVSS VL: DVQITQSPSYLATSPGETITINCRASKSISKYLAWYQEKPGKTNKLLIYSGSTLQSGVPSRFSGSGSGTDFTLTISSLEPEDFAMYFCQQHHEYPLTFGAGTELELK | – | – | – | – | – | – | – | – | – | – | – | – | – | – | – | 1000 | ~900 | > 420 |
